Measurements as given in the nanobody polyreactivity screen of Harvey et al. (2022).

Assay: yeast display, Sf9 membrane polyspecificity reagent, FACS + sequencing; frameworks hold sequencing errors
In short: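 Polyreactivity labels are assigned by the sorting gate from which each nanobody was recovered. The gates were low and high (top ~1%), set on anti-HA fluorescence for expression and streptavidin fluorescence for reagent binding. Before sorting, galactose-induced (36–48 hours) yeast display cells were stained for 1 hour at 4 °C with 10% biotinylated, detergent-solubilized Sf9 membrane reagent.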

| Sequence | polyreactivity (PSR sort gate) |
| --- | --- |
| QVQLVESGGALVQAGGSLRLSCAASGSIFVSNAMGWYRQAPGKERELVAAISQSGGSTYYADSVKGRFTISRDNAKNTVYLQMNSLKPEDTAVYYCATPIRSGFRIYDYWGQGTQVNVSS | low polyreactivity |
| QVQLVESGGALVQAGGSLRLSCAASGSTFAYNAMGWYRQAPVKERELVAAITWNGGDTYYADSVKGRFTISRDNAKNTVYLQMNSLKPEDTAVYYCAAEDTYYRDSDYWGQGTQVTVSS | low polyreactivity |
| QVQLVESGGALVQAGGSLRLSCAASGSTFFKYGMGWYRQAPGKERELDATISSRGGNTSYADSVKGRFTISRDNAKNTVYLQMNSLKPEDTAVYYCNAGGDEPVYGSGYDYWGQGTQVTVSS | low polyreactivity |
| QVQLVESGGALVQAGGSLRLSCAASGSTFKVYAMGWYRQAPGKERELVAAISFSGGTTYYADSVNGRFTISRDYAKNTVSLQRNSLKPEDTAVFYCAADGSTWYSYYYWGLGTQVTVSS | high polyreactivity |
| QVQLVESGGALVQAGGSLRLSCAASGSTFLGYTMGWYRQAPGKERELVAAITSSGGRTYYADSVKGRFTISRDNAKYTVYLQMNSLIPEDTAVYYCATREYYPYSTRYSISYDYWGQGTQVTVSS | high polyreactivity |
| QVQLVESGGALVQAGGSLRLSCAASGSTIRDYAMGWYRQAPRKERELVAVIDNSGGRTYYADSVKGRFTISRDNAKNTVYLQMNSLKPEDTAVYYCNAYAYPFRGGYWGQGTQVTVSS | high polyreactivity |
| QVQLVESGGALVQAGGSLRLSSAASGSIFGSNGIGSYRPAPGKERELVAAITRSGGSTRYADSVKGRFTISRDNAKNTVYLQMNSLKPEDTAVYYCAKYDTSTGYDYWGQGTQVTVSS | high polyreactivity |
| QVQLVESGGALVQAGGSLRLSSAASGSTFYLNAMGWYRQAPGKERELVAAITVSGGSTYYADSVKGRFTISRDNAKNTVYLQMNSLKPEDTAVYYCARELLSPTYQRWYYYWGQGTQVTVSS | low polyreactivity |
| QVQLVESGGALVQAGGSLRLTCAASGRTFYYYAKGWYRPAPGTERELVAAISCSGGRTYYADSVKGRFTISRDNANDTVYVPMNSLKPEDTAVFYCYAEPPSGYTVSSGGEMDYWGQGTQVTVSS | low polyreactivity |
| QVQLVESGGALVQAGGTRRLSCAASASTYPYAMGWYRQDPAKERELVAAITWSGGNTYFADSVKGRFTISRDNAKNSVYLQMNSMKPEDTAFYYCAALIGYRVFRYNYWGQGTQLTVSS | high polyreactivity |
| QVQLVESGGCLDQAGGRLRLSCAASGSTFYDYVMGWYRQAPGKERELVAVISSSGSTNYADSVKGRVTISRDNAKNTVYLQMNSLKPEDTAVYYCAVDPFRRWWETIFDEYDYWGQGTQVTVSS | low polyreactivity |
| QVQLVESGGCLFQAGGSLRLSCAASGSTFYWYTMGWYRQAHGKERELVSTMTTVGRTNYADSVKGRFTISRDNAKNTVYLQMKSLKPEVTAVYYCAASKARWPRGGCKYYYWRQGTQVTVSS | high polyreactivity |
| QVQLVESGGCLVHAGGSLRLSCAASGFTFRWYAMGWYRQAPGKERELVASISRRGGSTYYADSVKGRFTISRDNEKNTVYLQMNSLKPEDSAVYYCAADYYDYWGQGTQVTVSS | high polyreactivity |
| QVQLVESGGCLVQAGGILRLSCAASGSIFVGYDMGWYRQAPGKERELVAAITGTVSTYYADSVKGRFTISRDNAKNTVYLQMNSLKPEDTAVYYCAAEFVYAYGDGGVYWSWMEYWGQGTQVTVSS | low polyreactivity |
| QVQLVESGGCLVQAGGILRLSCAASGYTFFLYAMGWYRQAPGKERELVAAINNGGGSTYYADSVKGRFTISRDNAKNTVYLQMNSLKPEDTAVYYCAVRVARGYRYGYWGQGTQVTVSS | high polyreactivity |
| QVQLVESGGCLVQAGGRLRLSCAASGFTFGYYAMGWYIQAPGKERELVAAIDWSGGTTYYADSVKGRFTISRDNAKNTVYLQMNSLKPEDTAVYYCAADVVEEDDLEFYYWGQGTQVTVSS | high polyreactivity |

| Sequence | polyreactivity (PSR sort gate) |
| --- | --- |
| QVQLVESGGCLVQAGGRLRLSCAASGRTFTGYTMGWYRQAPGKEREFVAAIRKSGGSTYYADSVKGRFTISRDNAKNTVYLQMNSLKPEDTAVYYCASRYRYYYTRYDYWGQGTQVTVSS | high polyreactivity |
| QVQLVESGGCLVQAGGSLPLSSAASGSTFSYNDMGSDRQAPGKARELVADINVSVGRTYYADSVKGRFTISRDNAKNTVYLQMNSLKPEDTAVYYCAKDYYRYHYYYCGQGTQVTVSS | low polyreactivity |
| QVQLVESGGCLVQAGGSLRFTCAASGSIFPYYAMGWYRQAPGKERELVAAISGSGGSTYYADSVTGRFTISRDNAKYTVYLQMNSLNQEDTAVYYCAARPFARYEYWGQGTQVTVSS | low polyreactivity |
| QVQLVESGGCLVQAGGSLRLICAASGGLFGTYTMGWYRQAPGKERELVAAIRSSSGRTYYADSVKGRFTISRDNAKNTVYLQMNILKPEDTAVYYCNAKYYGYRVGKYYPFGYWGQGTQVTVSS | high polyreactivity |
| QVQLVESGGCLVQAGGSLRLSCAASGFIFGSNVMGWYRQAPGKERELVAAISYSGASTYYADSVKGRFTISRDNAKNTVYLQMNSLKPEDTAVYYCNAESYYFYWPVYSYDYWGQGTQVTVSS | low polyreactivity |
| QVQLVESGGCLVQAGGSLRLSCAASGFTFGRYAMGWYRQAPGKEREFVAAISYTGTSTYYADSVKGRFTISRDNAKNTVYLQMNSLKPEDTAVYYCNAVHPGTVAYDSWGQGTQVTVSS | high polyreactivity |
| QVQLVESGGCLVQAGGSLRLSCAASGFTFGRYVMGWYRQAPGKERELVAGINQSGGRTNYADSVKGRFTISRDNAKNTVYLQMNSLKPEDTAVYYCAALRSWRKTGGAQRYWYDYWGQGTQVTVSS | high polyreactivity |
| QVQLVESGGCLVQAGGSLRLSCAASGGIFYPNAMGWYRQAPGKEREFVASITRSGGSTYYADSVKGRFTISRDNAKNTVYLQLNSLTPEDTAVYDCAAAYKSLYTYTRFYYWGQGTQVTVSS | high polyreactivity |
| QVQLVESGGCLVQAGGSLRLSCAASGLIFYENAMGWYRQAPGKERELVAAINYDGDSTYYADSVKGRFTISRDNAKITVYLQMNSLKPEDTAVYYCAADGGWVLFWMDYWGQGTQVTVSS | low polyreactivity |
| QVQLVESGGCLVQAGGSLRLSCAASGLTFRYYAMGWYRQAPGKERELVAAITASVGSTYYADSVKGRFTISRDNAKNTVYLQMNSLKPEDTAVYYCAADSEQDNLRYYRWVWYDYWGQGTQVTVSS | low polyreactivity |
| QVQLVESGGCLVQAGGSLRLSCAASGNTFTSYAMGWYRQAPGKERELVAAISASGSSTYYADSVKGRFTISRDNAKNTVYLQMNSLKPEDTAVYYCNAVKYRVESSYDYWGQGTQVTVSS | low polyreactivity |
| QVQLVESGGCLVQAGGSLRLSCAASGNTIIRYAMGWYRQAPGKERELVAAISYSGGRTYYADSVKGRFTISRDNAKNTVYLQMNSLKPVDNAVYYCNAASRYGGDYWGQGTQVTVSS | high polyreactivity |
| QVQLVESGGCLVQAGGSLRLSCAASGRIFGSYTKGWYRQAPGKERELVAAISDSGDSTYADSVKGRFTISRDNAKNTVYLQMNSLKPEDTAVYYCNAKSGSLAGNEYDYWGQGTQVTVSS | low polyreactivity |
| QVQLVESGGCLVQAGGSLRLSCAASGRIFRYNTMGWYRQAPGKEREFVASISNGGSTNYADSVKGRFTISRDNAKNTVYLQMNSLKPEDTAVYYCNADVPSDGYPGYPGGFESWGQGTQVTVSS | low polyreactivity |
| QVQLVESGGCLVQAGGSLRLSCAASGRIFYSYAMGWYRQAPGKERELVATISSGGSTNYADSVKGRFTISRDHAKNTVYLQMNSLKPEDTAVYFCAAADRLYWRGVIYRQYDYWGLGTQVTVSS | high polyreactivity |
